Earlier results, collected in paper PMC3022668.

Target: streptavidin (Streptomyces avidinii) (UniProt P22629)

Kd: 2.5 nM
Substance: streptavidin-binding peptide (SBP)
